Measurements as given in the DeepSol protein solubility set.

assay: soluble on expression in E. coli; label from the status in PepcDB or PDB records

Sequence	soluble on expression in E. coli
MINDIKILGVGGSPRKNGNTDVLLDSFLKGAESAGVETKKVLLRDYSIEPCIGCERCRKTGTCTRFHDGMSLLYPEIEAAKGLTLGSPTYNYNVTALMKAFIDRLYPYYNFTNVRPRRYSSKLAGQGRKAIVFSVCEQLEIEEMGFTLGALGMPLEALGYEIVEKFPVTGYFDRGAVSRDEELLRKTFEAGKKMAEALHLEHHHHHH	not soluble
MINIDPPSGDCPASGGSSTHNIVSESESRLAFKVKSSNNESYRVRPVYGFVDAKGKAKLDVNRLAGPPKEDKLVIQYARVPADETDPKAPFAAGAQQGEVVVKMVAT	not soluble
MINKDTQLCMSLSGRPSNFGTTFHNYLYDKLGLNFIYKAFTTQDIEHAIKGVRALGIRGCAVSMPFKETCMPFLDEIHPSAQAIESVNTIVNDNGFLRAYNTDYIAIVKLIEKYHLNKNAKVIVHGSGGMAKAVVAAFKNSGFEKLKIYARNVKTGQYLAALYGYAYINSLENQQADILVNVTSIGMKGGKEEMDLAFPKAFIDNASVAFDVVAMPVETPFIRYAQARGKQTISGAAVIVLQAVEQFELYTHQRPSDELIAEAAAFARTKFLEHHHHHH	soluble
MINKLKENIGSVFVGKENVIDLLLVSLLADGHVLLENVPGTGKTLLAKTISKSIGGSFSRVQFTPDVLPSDVTGIEYFNPKTSEFELRIGPVMTNILLADEINRAMPRTQSSLLEAMEERQVTLEKQSTPLPKPFFVIATQNPIESQGTFPLPDAQLDRFLMTISIGHPTPKDELQMMRRFRNDLPLESVTSVISLEDILEAQKRVKEIFVSEPLEHYIIKLAHATRNHDYIANGVSPRATLALVRAVQALAFLRGREYCTPEDIQLLVPSVWNHRIVLSMEGALRTTKNDIMQSILKEVDVPVEIEQA	not soluble
MINNVLVWKQPNISWIHPINIDNSINANNFNFDYLDTLNKLRSSNLKILELRDIADKISDGPFGSQLKVEEYKEQGFPVYRVKNIIDTQILDDDIVYIDAKKQQQLKRSEVLPGDVLITKAGRIGSAAVVPSKFGNGNITSHLVLVRLKKTINNYYLVAYLECKYGKVITGRESYKSTRPELTKNEIGNVIIPIPSPEIQKYIGDKVRKAEELREEAKRLKKEAETFLYEMIQLKPLNDFDKDMFSFVNSNYIDSERLDSEYYKTKYITLEKLLKSKKVTSFKDIIIESKYGASVPADYTMVGIPFIRGNNLTDNEINIDDIVYLNKKLKDEVKDHHVNTGDILITRSGTVGISAVVDEKCDGFSFGSFMIKLRIDMRIWNPYYIAAFLNSFWGKWQIERLQNGAVQQNINLQEIGRIIIPIISKENQDKIEELIKNYINKKRQSKQLIQEAKQDVEDLIEGNFDMSKVKANS	soluble
MIPLFNFAIKQFMNQRMKNIRGFMEHPIETQQRVLKNLLQQAALTEWGKTHGYKDIQSNEQFAQQVPVSTYETFYPWIERCLKGEQQILWQSDIDWFSKSSGTTNAKSKFIPVSKESLKDCHYKGGMDLLTLYFDNAPESKLFQGKSLAVGGSCSPNPHRDNSKIGDISAVIMANLPTWAQYARTPSIQTALMNEWEAKIDKLAEECSKENVTNLSGVPTWAVLLLEYMLEKSGKENMLEIWPHFECFFHGAVSFHPYKTAFQKFFPSDKVRYMETYNASEGFFGVQDDLSRDDLLLYLDHGIYYEFIPIDEIDAEFPKTISLEQVQLNEAYALVISTNSGLWRYNVGDVVRFTSITPYRIKITGRTKHYINVFGEELMVENAEMAVSKACEATNAVLANFTAGPIYFNNENKGGHEWIIEFETAPGDKDRFTQLLDQFLKELNSDYEAKRYKDMALLLPTIHFVPEGTFYKWLKLKGKLGGQHKVPRLSNNREYLEDILTKCL	not soluble
MIPRVRAPELPQNYPWLNTEQPLSIKQLNGRVVILDFWTYCCINCLHVLPDLKYLEQKYKDSLTVIGVHSAKFDNEQETENIRQAILRYDIEHPVLVDKDFRVWQEYAVRAWPTLMVIDPKGYVIGYVSGEGNRDKLDQLITQVIQEHQGAINFQQLSLTLEKQRQPLITPLAFPGKVLATPSGLFVADSGHHRIVVSDFNGEILHLIGNGKSGLTDGNFQEAQFSAPQGMAFDMENQILYLADTENHALRRVDINQQTVETIAGTGEQSRNIQPHGGVGLETALNSPWDLVNIENSLYIAMAGVHQIWQMDLASGVIKTYAGTGVEACLDASLTESAFAQPSGITNNEQELYIADSEISSIRGVGLVEPQEVRTVCGSGGLFGFGDVDGQGEDVRLQHCLGVEYFQNYLWVADTYNHKIKSVSPHTGNCQTVLGDGLAGLQNGQGKNTRFFEPSGLSAIDSYLYISDTNNHVIRRVDLRTLEVTTMQFNGLCAPDVCIPNNFLEHHHHHH	not soluble
MIPSRSARIIAKLQRLHSTTSAASVSSIDVKEVEKFGDLSAEWADELGPFHALHSLNRIRVPWIVDNVRKSDQKAPPRLVDVGSGGGLLSIPLARSGFDVTGIDATKQAVEAANQSLTAKPLQIAGISKRLRFEHTSVEDFCQKPHNKSAYDAVVASEIVEHVADLPGFIGCLAELARPGAPLFITTINRTWLSKLAAIWLAENVLKIVPPGVHDWEKFITPAELTSHLEKAGCRVTAVHGLMFHPVGNHWTWIESTQCNYGILAVKN	not soluble
MIRLVIVEPEGSYNLGFISRLAKNFLVDELYIVNPHCDLEEAKKFSAKGLEYLEKAKIVNNFDEAIKDVELKIATSSIADIKGDILRKSIRPWELPRIIEGKKVALIFGRESVGLTREEIAKSDLLLFIPGNPEYPVLNLSHAVGIVLYEIWKSRGENKPVISGEAISLIDKYSRDLVNLIKSNEGDEAMYIALKRALIKGIGDEEEARTIIRLLRKLYIKLTRKIE	soluble
MIRSFADRDTELVWLREGAKRVDPRIHKVANRKLHLLDAATTLDALRVTPGNRLETLEGDRVGQYSIRVNDQWRICFRWNDSGPENVEIVDYH	not soluble
MIRSSIDLMLKTGAAALAKNFENRDPIAGQREILARLVVAAAVTRFGRDHGFAELAGEPFDRLYAEFRRRVPIRTYADFWRDYFSAWQSDANGSQRLLLEDVTWPGRIPFFCETSGTTAPTKYIPFSREMFAANKRAAIDLTACYLHRTPRSRLFQGKLLYMAGNTSLTDLGNGVQSGDMSGITLRHRPFYLRPFVAPGMAVSALPWEEKVVELAGLLLSDRSIRGISGVPPWIILLLQRVEEMGHRPIAELLPNLELIIHGGTSMKPYRREFDGLFPRRRPHFLEVLPSSEAFMAFQLPGEDRMRLVPHYGAFFEFIPIEDLDEGGTPAADAPTVPLEAVETGRRYAVILTTCAGLWRYHIGDTLRFTALSPHFIEFTGRDRFLDRFEEKVTQGEVEEAVARLNQLDGIEVREFMVGPDIGERRHLWVLAVGEMNERSGDVLGRHLDATLRSLNADYATFRSQGRIAGPRVVTVSGDVIYRWSKEVRGKLGGQSKIPHVDPTVEGEMVASLAAFARRFQACWIADSFQGFGPTGRVKVQNSSNFTGSRSLPERTRPSSSVVLEHHHHHH	not soluble
MIRVTIEREADGRIRAFTMEGHAHFAKRGQDIVCAGASAVSFGTINAIETLIGVSPHVSLGKDGGYLRCELPELEEAAAEKVQLLLEAMVVSLKTIERDYGTFIRVTSI	not soluble
MISNKRRPKIKIWNKEQMALYLKAIKKDRLYAAFVTDSKSGLRKSELLALRWSDIDFSTGLTKIERGWVRSPKGTLYLSDLKSENSERTLVFSTDLLKVLLEHKSRQDEEKKTAGKNYIDNGLVFCREDGSYINPSTFTRRHYDLTAKAKLPRISVHALRHSISTALLESGKVDLKQIQEMLGHKDISTTGNYYTDVLERMKQKTSELIDNLIQTELEHHHHHH	not soluble
MISNQVLQNTLEGLKEISRTEFCIIDTEGKVLATTFADFSIQPGDIQAFVESQADSQLVKGFQYFKVCDDYQLEYILVAHGDDEDTYMVGKLAAFQIQNLIVAYKERFDKDSFIKNLLLDNLLLVDIYNRAKKLHIDADVRRVVMILELQQEKDHSSMESVKSFFGGKSKDFITAVDEKSIIIVKELEDGEGYAEMDKLAHAILDTLGLNQNEETHIAYGTIVNELKEVSRSYKEARMALDVGKIFFGEKDVIAYSSLGIGRLIYQLPIPLCKMFIKEIFENKSPDDFDEETLVTIDKFFENSLNVSETSRQLYIHRNTLVYRLDKLQKSTGLDLRVFEDAITFKIALMVVRYMKYMETLEY	not soluble
